Laboratory results as given in publication PMC3043101.

Target: invariant chain (Ii), endogenous in Raji cells (human (endogenous in Raji)) (UniProt P04233)
Assay: cross-linking; pooled sucrose gradient fractions 7/8 or 14/15 of Raji cell lysate; increasing DSP (up to 200 µg/ml), 2 h on ice; non-reducing SDS-PAGE; western blot for DRα (TAL-1B5) or Ii (Bu43)

- stoichiometry N: 3
Substance: invariant chain (Ii), endogenous in Raji cells (from UniProt P04233 1-296) (natural protein)
